Results reported in patent publication EP4806514A2 (Lepu Biopharma Co., Ltd., dated 2025).

Legend:
[1] = target: T1, human CDH10-his protein (Acro bio, Cat. No. CA0-H52H5) (human, UniProt Q9Y6N8 55-613); assay: ELISA, antigen coated at 1 ug/mL
T1 construct: Bought; also called human CDH10 protein
T1 sequence (looked up): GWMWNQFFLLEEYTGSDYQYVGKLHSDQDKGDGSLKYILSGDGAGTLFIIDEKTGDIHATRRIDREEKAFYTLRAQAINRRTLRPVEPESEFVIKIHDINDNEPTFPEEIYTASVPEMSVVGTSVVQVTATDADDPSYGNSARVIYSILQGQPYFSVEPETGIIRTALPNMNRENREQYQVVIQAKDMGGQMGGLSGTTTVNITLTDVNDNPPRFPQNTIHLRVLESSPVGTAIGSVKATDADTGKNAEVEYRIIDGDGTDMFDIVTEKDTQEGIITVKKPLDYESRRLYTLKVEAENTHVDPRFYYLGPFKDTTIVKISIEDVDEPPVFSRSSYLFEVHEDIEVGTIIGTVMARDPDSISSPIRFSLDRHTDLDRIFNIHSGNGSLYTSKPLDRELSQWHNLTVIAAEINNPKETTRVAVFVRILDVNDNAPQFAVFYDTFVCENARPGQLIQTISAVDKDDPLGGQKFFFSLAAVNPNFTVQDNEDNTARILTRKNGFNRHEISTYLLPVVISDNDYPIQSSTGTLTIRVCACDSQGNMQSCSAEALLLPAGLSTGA

[2] = target: T2, mouse CDH17-his (Kactus, Cat. No. CDH-MM117) (mouse, UniProt Q9R100 23-786, limits assumed); assay: ELISA, antigen coated at 1 ug/mL
T2 construct: Bought; also called mouse CDH17 protein
T2 sequence (looked up): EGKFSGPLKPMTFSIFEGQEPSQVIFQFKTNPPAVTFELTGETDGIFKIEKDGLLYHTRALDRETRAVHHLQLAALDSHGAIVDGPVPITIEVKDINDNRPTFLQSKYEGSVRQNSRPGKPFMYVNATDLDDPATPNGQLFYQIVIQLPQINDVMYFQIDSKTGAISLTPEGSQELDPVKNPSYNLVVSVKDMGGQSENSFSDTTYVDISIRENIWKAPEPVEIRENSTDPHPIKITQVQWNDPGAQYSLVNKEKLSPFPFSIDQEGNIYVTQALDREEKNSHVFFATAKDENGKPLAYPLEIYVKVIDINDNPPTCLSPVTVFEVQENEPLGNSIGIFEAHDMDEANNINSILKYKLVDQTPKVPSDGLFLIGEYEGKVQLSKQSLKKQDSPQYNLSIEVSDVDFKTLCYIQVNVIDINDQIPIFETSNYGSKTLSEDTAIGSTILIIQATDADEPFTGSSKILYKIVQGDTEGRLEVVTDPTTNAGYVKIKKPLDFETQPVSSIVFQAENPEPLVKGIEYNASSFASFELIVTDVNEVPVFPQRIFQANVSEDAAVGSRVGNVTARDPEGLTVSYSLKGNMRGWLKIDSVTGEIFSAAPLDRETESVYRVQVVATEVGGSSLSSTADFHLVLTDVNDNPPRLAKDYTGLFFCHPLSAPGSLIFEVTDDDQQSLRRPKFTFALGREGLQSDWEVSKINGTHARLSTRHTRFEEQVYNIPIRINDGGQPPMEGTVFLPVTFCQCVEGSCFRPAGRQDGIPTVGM

[3] = target: T3, human CDH16 protein (hCDH16-his, Novoprotein, Cat. No. CJ16) (human, UniProt O75309 19-786); assay: ELISA, antigen coated at 1 ug/mL
T3 construct: Bought; also called human CDH16-his
T3 sequence (looked up): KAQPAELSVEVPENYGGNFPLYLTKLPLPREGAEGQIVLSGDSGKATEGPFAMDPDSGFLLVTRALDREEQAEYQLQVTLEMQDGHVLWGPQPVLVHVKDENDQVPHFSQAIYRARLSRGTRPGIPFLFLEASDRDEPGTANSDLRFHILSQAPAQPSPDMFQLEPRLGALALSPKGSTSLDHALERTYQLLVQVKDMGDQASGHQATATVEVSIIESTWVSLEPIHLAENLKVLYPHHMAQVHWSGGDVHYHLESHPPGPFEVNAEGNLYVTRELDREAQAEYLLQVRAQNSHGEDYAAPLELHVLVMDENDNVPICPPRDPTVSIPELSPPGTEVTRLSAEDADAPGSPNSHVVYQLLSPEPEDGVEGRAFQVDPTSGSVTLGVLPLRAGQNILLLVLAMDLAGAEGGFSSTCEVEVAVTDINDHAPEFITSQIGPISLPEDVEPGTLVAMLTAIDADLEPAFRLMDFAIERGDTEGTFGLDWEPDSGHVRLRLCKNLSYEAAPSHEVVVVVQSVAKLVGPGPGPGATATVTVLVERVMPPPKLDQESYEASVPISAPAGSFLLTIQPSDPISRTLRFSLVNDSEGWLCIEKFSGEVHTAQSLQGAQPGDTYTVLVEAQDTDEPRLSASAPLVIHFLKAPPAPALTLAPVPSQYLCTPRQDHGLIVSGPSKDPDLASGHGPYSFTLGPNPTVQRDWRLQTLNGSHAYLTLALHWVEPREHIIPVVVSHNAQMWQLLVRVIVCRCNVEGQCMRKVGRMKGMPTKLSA

[4] = target: T4, rhesus CDH17-his (Kactus, Cat. No. CDH-RM117) (rhesus, UniProt A0A1D5R2B4 23-784); assay: ELISA, rhesus CDH17-his coated at 1 ug/mL
T4 construct: range 23-784; also called rhesus CDH17 protein
T4 sequence: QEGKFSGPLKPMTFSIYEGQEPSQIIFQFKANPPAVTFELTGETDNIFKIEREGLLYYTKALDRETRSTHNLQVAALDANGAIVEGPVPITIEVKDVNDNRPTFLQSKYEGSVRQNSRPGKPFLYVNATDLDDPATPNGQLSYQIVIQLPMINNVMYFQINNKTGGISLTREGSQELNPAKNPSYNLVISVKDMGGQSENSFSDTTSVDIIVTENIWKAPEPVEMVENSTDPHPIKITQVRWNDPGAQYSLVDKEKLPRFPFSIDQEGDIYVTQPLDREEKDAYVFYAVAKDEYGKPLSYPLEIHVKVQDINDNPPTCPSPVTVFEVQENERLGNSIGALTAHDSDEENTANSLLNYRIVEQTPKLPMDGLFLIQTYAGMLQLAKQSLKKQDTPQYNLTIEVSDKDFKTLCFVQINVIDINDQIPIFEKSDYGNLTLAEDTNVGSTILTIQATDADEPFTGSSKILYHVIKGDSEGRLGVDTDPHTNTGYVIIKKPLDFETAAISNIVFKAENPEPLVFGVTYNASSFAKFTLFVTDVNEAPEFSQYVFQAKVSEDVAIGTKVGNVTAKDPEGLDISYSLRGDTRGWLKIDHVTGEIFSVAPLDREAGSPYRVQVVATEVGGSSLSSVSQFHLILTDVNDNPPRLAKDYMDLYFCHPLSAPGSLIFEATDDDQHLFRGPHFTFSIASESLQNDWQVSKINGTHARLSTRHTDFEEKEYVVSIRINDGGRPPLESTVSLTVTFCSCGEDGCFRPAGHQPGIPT

B1: 29H8D3-z12 (antibody, V domains shown)
VH: QVQLVQSGAEVKKPGASVKVSCKASGYTFTDHTIHWMRQRPGQGLEWIGYIYPRDGYTKYNEKFKDRATLTADTSTSTAYMELRSLRSDDTAVYYCARFYYGYWYFDVWGQGTTVTVSS
VL: DIVMTQSPLSLPVTPGEPASISCRSSKSLLRSNGNTYLYWFLQKPGQSPQVLIYRMSNLASGVPDRFSGSGSGTDFTLKISRVEAEDVGVYYCMQHLEYPFTFGQGTKLEIK
notes: Humanized, human IgG1 constant region; also called 29H8D3-z12 mAb
Does B1 bind [1]?
Result: no binding (tested: titrated from 50 nM)

Does B1 bind [2]?
Result: no binding (tested: titrated from 50 nM)

Does B1 bind [3]?
Result: no binding (tested: titrated from 50 nM)

And the EC50 [4]?
The EC50 was 0.163 nM.
